From article PMC3306812 (Molecular Cell, 2012)

Target: full-length OTUB1 (human, UniProt Q96FW1 1-271)
Test: NMR titration

Chain of full-length OTUB1 (Q96FW1 whole entry): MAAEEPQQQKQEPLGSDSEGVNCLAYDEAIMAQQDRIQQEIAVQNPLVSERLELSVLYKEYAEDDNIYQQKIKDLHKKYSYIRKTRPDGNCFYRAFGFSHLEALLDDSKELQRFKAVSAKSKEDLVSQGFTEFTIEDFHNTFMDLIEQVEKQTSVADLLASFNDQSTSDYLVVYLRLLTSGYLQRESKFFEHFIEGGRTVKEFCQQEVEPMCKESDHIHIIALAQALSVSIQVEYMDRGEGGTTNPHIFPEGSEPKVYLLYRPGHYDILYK

B1: UBC13 (enzyme, UniProt P61088 1-152, looked up)
chain: MAGLPRRIIKETQRLLAEPVPGIKAEPDESNARYFHVVIAGPQDSPFEGGTFKLELFLPEEYPMAAPKVRFMTKIYHPNVDKLGRICLDILKDKWSPALQIRTVLLSIQALLSAPNPDDPLANDVAEQWKTNEAQAIETARAWTRLYAMNNI
B1: binds.
